Test results from US20250027068.
Where a chain is given by its changes, count along the chain named.

B1: PRT-175 (protein)
chain: MANQEIRYSEVTPYHITSVWTKGVTPPTDFTQGEDVFHAPYKANQGWYDITKTFNGKDDLLCGAATAGNMLHWWFDQNKTQIERYLKKHPEKQKINFNGEQMFDVKEAIDTKNSQTNSELFNYFKEKAFPYLSTKHLGVFPDHVIDMFINGYRLSLTNHGPTPVKRQSKDPRGGIFDAVFTRGDQSKLLTSRHDFKEKTLNEISQLIKQELTEGKALGLSHTYANVRINHVINLWGADFDAEGNLEAIYVTDSDSNASIGMKKYFVGVNSAGKVAISAKEIKEDNIGAQVLGLFTLSTGKDSWEKTN
B2: PRT-167 (protein)
chain: MANQEIRYSEVTPYHVTSVWTKGVTPPTDFTQGEDVFHAPYKANQGWYDITKTFNGKDDLLCGAATAGNMLHWWFDQNKDQIKRYLEEHPEKQKINFNGEQMFDVKEAIDTKNSQLDSKLFEYFKEKAFPYLSTKHLGVFPDHVIDMFINGYRLSLTNHGPTPVKEGSKDPRGGIFDAVFTRGDQSKLLTSRHDFKEKNLKEISDLIKKELTEGKALGLSHTYANVRINHVINLWGADFDSNGNLKAIYVTDSDSNASIGMKKYFVGVNSAGKVAISAKEIKEDNIGAQVLGLFTLSTGQDSWNQTN
B3: PRT-170 (protein)
chain: B2 chain with T31I, Q32K, N44H
B4: PRT-171 (protein)
chain: B2 chain with T31I, Q32K, N44G
B5: PRT-173 (protein)
chain: B2 chain with T28A, D29N, K42V, S114H, V268K, S270A, A271S, K282E, E283G, D284E
B6: PRT-174 (protein)
chain: B2 chain with T28A, D29N, K42V, S114H, V268K, S270A, A271S, K282E, E283D, D284E
B7: PRT-168 (protein)
chain: B2 chain with T28E
B8: PRT-172 (protein)
chain: B2 chain with T25K, T31I, Q32K, N44H
B9: PRT-169 (protein)
chain: B2 chain with S114D
B10: PRT-106 (protein)
chain: MRNATEAYAKEVPHQITSVWTKGVTPLTPEQFRYNNEDVIHAPYLAHQGWYDITKTFNGKDNLLCGAATAGNMLHWWFDQNKTEIEAYLSKHPEKQKIIFNNQELFDLKAAIDTKDSQTNSQLFNYFRDKAFPNLSARQLGVMPDLVLDMFINGYYLNVFKTQSTDVNRPYQDKDKRGGIFDAVFTRGDQTTLLTARHDLKNKGLNDISTLIKQELTEGRALALSHTYANVSISHVINLWGADFNAEGNLEAIYVTDSDANASIGMKKYFVGINASGKVAISAKKIEGENIGAQVLGLFTLSSGKDIWQKLS
B11: PRT-109 (protein)
chain: B10 chain with Q15T, L45V, N58D, D207E, R220K, A260D, I273V, S276A
B12: PRT-108 (protein)
chain: B10 chain with L27P, L45T, N58D, S276A, K278H
B13: PRT-107 (protein)
chain: B10 chain with H47N, T56A, N58D, D173T, L211I, R220K, I273V, S276A, K278H
B14: PRT-110 (protein)
chain: B10 chain with L27P, I40F, L45T, N58D, Q122A, G204T, L211I, A260S, I273V
B15: PRT-95 (protein)
chain: MANQEIRYSEVTPYHITSVWTKGVTPPAKFTQGEDVFHAPYVANQGWYDITKTFNGKDDLLCGAATAGNMLHWWFDQNKEKIEAYLKKHPDKQKIMFGDQELLDVRKVINTKGDQTNSELFNYFRDKAFPNLSARRIGVMPDLVLDMFINGYYLNVGKTQTTDVNRTYQEKDKRGGIFDAVFTRGDQSKLLTSRHDFKEKNLKEISDLIKQELTEGKALGLSHTYANVRINHVINLWGADFDSNGNLKAIYVTDSDSNASIGMKKYFVGVNSAGKVAISAKEIEEDNIGAQVLGLFTLSTGQDSWNQTN
B16: PRT-105 (protein)
chain: B15 chain with I16V, K81E, N131G, G157Y, K173R, Q211K, E284K
B17: PRT-101 (protein)
chain: B15 chain with I16V, N131G, G157Y, Q211K, E284K
B18: PRT-96 (protein)
chain: B15 chain with H15T, I16V, K29D, V108A, N131G, G157Y, K173R, Q211K, N244E, E284K
B19: PRT-104 (protein)
chain: B15 chain with I16V, N131G, G157T, K173R, Q211K, E284K
B20: PRT-99 (protein)
chain: B15 chain with I16V, N131G, G157Y, K173R, Q211K, E284K, S304I
B21: PRT-97 (protein)
chain: B15 chain with I16V, D91E, N131G, G157Y, K173R, Q211K, E284K
B22: PRT-102 (protein)
chain: B15 chain with I16V, N131G, G157Y, K173R, E284K
B23: PRT-100 (protein)
chain: B15 chain with I16V, G157Y, K173R, Q211K, E284K
B24: PRT-98 (protein)
chain: B15 chain with I16V, N131G, I137L, G157Y, K173R, Q211K, E284K
B25: PRT-103 (protein)
chain: B15 chain with I16V, D114S, N131G, G157Y, K173R, Q211K, E284K

Target: pooled human IgG (human IgG1,2,3 and 4)

| Protein | Enzyme Activity Endpoint Assay: Fab'2 [ng/µL] | Enzyme Activity Endpoint Assay: Fc [ng/µL] | Enzyme Activity Endpoint Assay: IgG [ng/µL] | Enzyme Activity Endpoint Assay: scIgG [ng/µL] | Enzyme Activity Endpoint Assay: Fab′2 [ng/µL] |
| --- | --- | --- | --- | --- | --- |
| B1 | 497 | 147 | 0 | 0 |  |
| B2 | 572 | 161 | 0 | 0 |  |
| B3 | 755 | 193 | 0 | 0 |  |
| B4 | 765 | 187 | 23 | 0 |  |
| B5 | 912 | 226 | 0 | 30 |  |
| B6 | 586 | 160 | 0 | 0 |  |
| B7 | 628 | 159 | 0 | 0 |  |
| B8 | 821 | 215 | 0 | 0 |  |
| B9 | 658 | 188 | 0 | 0 |  |
| B10 |  | 202 | 0 | 0 | 739 |
| B11 |  | 181 | 28 | 0 | 457 |
| B12 |  | 203 | 0 | 0 | 666 |
| B13 |  | 200 | 0 | 117 | 553 |
| B14 |  | 136 | 0 | 0 | 575 |
| B15 |  | 118 | 102 | 0 | 242 |
| B16 |  | 192 | 0 | 13 | 663 |
| B17 |  | 204 | 0 | 0 | 655 |
| B18 |  | 156 | 0 | 0 | 482 |
| B19 |  | 130 | 0 | 0 | 259 |
| B20 |  | 152 | 0 | 0 | 489 |
| B21 |  | 185 | 0 | 0 | 524 |
| B22 |  | 160 | 0 | 0 | 607 |
| B23 |  | 178 | 0 | 0 | 513 |
| B24 |  | 180 | 0 | 0 | 592 |
| B25 |  | 158 | 0 | 0 | 544 |
